No end group written: not given here.
Columns and labels:
[1] = target: T1, Fib1 (N-terminal 30 kDa fragment of fibronectin, SEQ ID NO: 14) (Homo sapiens, UniProt P02751); assay: Affinity towards Fib1 by fluorescence polarization; type: binding; settings: fluorescence polarization assay (Example 1, FIG. 1)
T1 construct: 6-His (C); made in house
Experimental: FIG. 1: Affinity measurements of Cy5-labelled FnBPA5.1 and FnBPA5 towards the N-terminal 30 kDa fragment of Fibronectin (Fib1) according to SEQ ID NO: 14. Curves display triplicates measurements of fluorescence polarization. Error bars display standard deviations. Analysis was conducted using GraphPad Prism. KD is shown in nM.
Preferably, said affinity is measurable by using a fluorescence anisotropy assay, using a peptide with N-terminally appended Cy5 label (as described in Preparative Example 1). Detailed protocol for the measurement is included in Example 1.
For the affinity measurement experiment, Cy5-FnBPA5.1 (according to SEQ DI NO: 12) and Cy5-FnBPA5 (according to SEQ DI NO: 13) (48 nM) were mixed with different concentrations of Fib 1—N-terminal 30 kDa fragment of fibronectin according to SEQ ID NO: 14 (0 nM-4.5 μM) in PBS pH 7.4. Samples were incubated for 1 h (37° C., 70 rpm) and fluorescence polarization was measured in triplicates using the Pherastar FSX plate reader (BMG Labtech; Optic module: FP 590-50 675-50 675-50). […]

PC-3 tumor = assay: Biodistribution of 111In-labelled peptides in PC-3 xenografts; type: in vivo, CD1 nu/nu mice; settings: radioisotope-labelled peptide
Experimental: FIG. 4: Biodistribution of ^111In-labeled NODAGA-FnBPA5 and its engineered version NODAGA-FnBPA5.1 in PC-3 tumor-bearing CD1 nu/nu mice 24 hours after injection. Results are shown as averages of % injected activity per gram±SD (n=4).
(§1) Animal studies were carried out according to the Swiss Animal Protection Law under the license AG75700. For tumor implantation, 5×10^6 PC-3 cells in 100 μL PBS were injected subcutaneously into both shoulders of female CD1 nu/nu mice (Charles River, Germany) under isoflurane/oxygen anesthesia. Tumor growth was inspected regularly and tumors were measured using a caliper. Five weeks after tumor implantation, mice were injected via the tail vein with approximately 100-150 kBq of the corresponding ^111In-labelled radiotracers, previously diluted with PBS to a concentration of 1-1.5 MBq/mL. At 24 h p.i., mice were euthanized using CO2. The organs of interest were harvested, weighed and counted by means of gamma counter together with three standards containing 100 μL of the injection solution. The percentage of injected activity per gram (% IA/g) was calculated based on the average of the standards set at 100%.

67NR breast tumor = assay: Biodistribution of 111In-labelled peptides in 67NR orthotopic and syngeneic breast tumor model; type: in vivo, Balb/c mice; settings: radioisotope-labelled peptide, 67NR orthotopic and syngeneic breast tumor mice
Experimental: FIG. 5: Biodistribution of ^111In-labeled NODAGA-FnBPA5 and its engineered version NODAGA-FnBPA5.1 in 67NR tumor-bearing mice 24 hours after injection. Results are shown as averages of % injected activity per gram±SD (n=4).
as §1, with “implantation, 40′000 67NR” for “implantation, 5×10^6 PC-3”, “in 50” for “in 100”, “into the mammary fat pad at the 4th nipple” for “into both shoulders”, “female Balb/c” for “female CD1 nu/nu”, “caliper. Two” for “caliper. Five”

T1 sequence (P02751 32-290): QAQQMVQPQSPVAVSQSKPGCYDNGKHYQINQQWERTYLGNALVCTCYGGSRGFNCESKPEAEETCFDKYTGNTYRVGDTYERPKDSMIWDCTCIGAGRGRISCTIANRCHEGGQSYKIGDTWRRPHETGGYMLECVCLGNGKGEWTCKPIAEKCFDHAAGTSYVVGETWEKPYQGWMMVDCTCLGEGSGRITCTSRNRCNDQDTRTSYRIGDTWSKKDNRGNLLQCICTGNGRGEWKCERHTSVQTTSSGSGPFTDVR

Gln-Val-Thr-Thr-Gly-Ser-Asn-Leu-Val-Glu-Phe-Thr-Glu-Glu-Ser-Leu-Gly-Ie-Val-Thr-Gly-Ala-Val-Ser-Asp-His-Thr-Thr-Val-Glu-Asp-Thr (QVTTGSNLVEFTEESLGIVTGAVSDHTTVEDT; not fully specified) [FnBPA5.1]
Affinity for Fib1 compared with FnBPA5 [1]: improved affinity
Uptake in tumors compared with FnBPA5 (PC-3 tumor; PC3 xenograft mice): improved uptake in tumors
Uptake in spleen and liver compared with FnBPA5 (PC-3 tumor; tumor model not given): lower uptake in spleen and liver
Uptake in tumors compared with FnBPA5 (67NR breast tumor): improved uptake in tumors

From US12559525B2, “Conjugated fibronectin-binding peptides for use in tumor or fibrosis diagnosis and therapy” (priority 2021, dated 2026)
